# Test results as given in PMC7340271 (IUCrJ, 2020).
# Where “and” joins values, the source holds several entries; their conditions need not be identical. Equal values may be shown once.
# Biological target: the molecule itself
# Assay: crystal structure
protein,measurement,value
"N-terminal lipid-binding domain of Mycobacterium tuberculosis Wag31 (residues 2-60) (domain or fragment, Assembly states reported: parallel coiled-coil dimer (asymmetric unit), tetramer ('dimer-of-dimers'); also called N-Wag31; N-terminal Wag31) PLTPADVHNVAFSKPPIGKRGYNEDEVDAFLDLVENELTRLIEENSDLRQRINELDQEL",stoichiometry N,2 and 4
